From a protein production outcome set (Wang et al. 2014)

Experiment: label from the status in PepcDB records

Sequence	protein production
MSLILLGALSLASSTFAQTWIWYPGDYEIWLGNQMNNRRTERGAFFPPFWKTDSHYVVVEFSKVLNLSEPEEVFIAAEGTYNVKLDGKLQFGMPETLLLPAGKHSLNIKVWNQATPPTIYVKGKTVNSDSSWRVTYEDKEWIDESGKASDTSATIYMDAGCWNFDGATQRPSQFSLMREPQQPVAKTEQPEGGILYDFGKETFGFITLKNLSGKGKIDLYYGESPEEAKDKAYCETLDKLLLEPGQITDLAIRSTSPLHHSDNEYTLENSKAFRYVYITHEPEVQIGEVSMQYEYLPEEYRGNFRCNDEELNCIWEVGAYTMHLTTREFFIDGIKRDRWVWSGDAIQSYLMNYYLFFDSESVKRTIWLLRGKDPVTSHSNTIMDYTFYWFLSVYDYYMYSGDRHFVNQLYPRMQTMMDYVLGRTNKNGMVEGMSGDWVFVDWADGYLDKKGELSFEQVLFCRSLETMALCADLVGDKDGQQKYEKLASALKAKLEPTFWNNQKQAFVHNCVDGRQSDAVTRYANMFSVFFDYLNADKQQAIKQSVLLNDEILKITTPYMRFYELEALCALGEQETVMKEMKAYWGGMLKAGATSFWEKYNPEESGTQHLAMYGRPYGKSLCHAWGASPIYLLGKYYLGVKPTKEGYKEFAVSPVLGGLKWMEGTVPTPNGDIHVYMDNKTIKVKATEGKGYLTIQSRRQPKANMGTVEKVSEGVWRLWIDSPEERIVTYRLEGHHHHHH	not failed
MMNKPAPRELEVIRSTYITPHMLRITLGGAGLAGFPADQESAYIKLLFPQAGERPLMRTYTIRQQRDDEIDVDFVLHDTDGPASSWAKTAQVGELIQIGGPGLKKLINFEADWFLLAGDMTALPAISVNLAKLPNNAVGYAVIEVLSEADIQPLVHPEHVELHWVINPEADPEGRPLVERIAQLPWLAGEPAVWIACEFNSMRALRRHFKQAHALPKSHFYTSSYWKIGCNEGEHKLVKQEDEQLENGASV	not failed
MFVRSHCLEVTNLRKWFYYFNRRNKRMQWLKVILAGFIEIIWVTGLDQAHSLFTWIFTLFFIALSFFLVIDASKHLPVGTVYAFFVGIGAVGTVLVDMIFFNQPFTFTKIFLIMTLILGIIGLKLTTDATKEGR	failed
MYKSPLTLLTLLTICFGFFDLSSALYGSSSPVVQLTASNFKSKVLNSNGVVLVEFFAPWCGHCKALTPTWEKVANILKGVATVAAIDADAHQSAAQDYGIKGFPTIKVFVPGKAPIDYQGARDAKSIANFAYKQIKGLLSDRLEGKSKPTGGGSKEKKSEPSASVELNASNFDDLVIESNELWIVEFFAPWCGHCKKLAPEWKRAAKNLQGKVKLGHVNCDVEQSIMSRFKVQGFPTILVFGPDKSSPYPYEGARSASAIESFASELVESSAGPVEVTELTGPDVMEKKCGSAAICFISFLPDILDSKAEGRNKYLEMLLSVAEKFKKQPYSFMWVAAVTQMDLEKRVNVGGYGYPAMVAMNVKKGVYAPLKSAFELQHLLEFVKDAGTGGKGNVPMNGTPEIVKTKEWDGKDGELIEEDEFSLDELMGGDDAVGSKDEL	failed
MTPVQIAAVVVTYESSSTIDACLSRLRAAEGISEIRVVDNASSDDTLEVVQRHALADARLHFIANPDNPGFATACNQGARDSQAPWLVFINPDLMIARDTLLQLYHRAAGHPAVLLGVEQVDEQGRPDAAVRRRDPDFAAMLRAPRAAANLAVPADPSRALQPVDAISGALMLMQRSLFDRLDGWDGSYRLHAEDLDLCRRARQAGALVAVANDLHVLHVRGVSSRARPFFVEWHKHRGLWRYFRKFEADRRGLLTRLGVWLAIWSHAAAQVPRLLQNKLEHHHHHH	failed
MDTVTLARAFFGSSLAFHIIFATLGVGLSLMIFISEILYHWKKDSDYAIMAKRWTKAFAILLGVAIPTGTIVGVQISLLWPGFAKIVGQVISVPFQIEIFAFFLEALFMSIYVYAADKLPPFMRLISLFFVMLGATASAVLITSANTWMNTPAGFSMNPDGSVFNVDPWKAFFNPSFGTSAFHVVITAYATGAAVIASIAGFKLLKKNLSTREIAYHKKGLLLGLVVTFITGATMWLSGHESAIALHKHSPEKLASAEALFETTSHAPLSIGGVVDPNTLELNYALEIPNMLSLLVGLDPSTVVKGLKEFPQETWPPFYTHTLFNLMVGTAAFTFAVAAIALLYWYFVYRKKGTELPKWLLWGAAACGPIMMLGIEFGWIFSCSGRQPWTIYGMQRTVDASTRADFVGPLFVLFIILYIGLAILTVIVLRTFFRRHPLKNDLQHQGGDSHA	failed
VHVEDALTYLDQVKIRFGSDPATYNGFLEIMKEFKSQSIDTPGVIRRVSQLFHEHPDLIVGFNAFLP	not failed
MSVNLGSLPRQRSLLSRLRDLWPLWLFLALLASALHYIVRYWPQIVLQSAIWQKSLHQQMSHLLQMVEQQPHQAGLSLMMFSLVYGVLHAVGPGHGKVVIMTYLATHPSKLKSSLKLTLAASLVQGLMAIALVTVVLGILQLSSRTLHNSSFWMEKGSFVLVAGLGLLLCFRALKQLYIVLVRQPKPATILRVIPLPVTPLNVAAHGRMTLSPIYAPSHSLHQHDVDCGCGHRHLPSNEELERGSSWHTRLMIVLAMGMRPCSGAIMVLLFSKVIGVYLWGVASALVMAAGTAITISALAVLVFYCRRVIERLGANRASPVWQRATFSLLSFAGGMILVGSGILLYLSAQPAMMGGIRPFSG	failed
MSLERFAPIKVERCKDIQKELKKAAAENKLQTEDLWFEILKTSIFIKNSAKDDFSEAFGGELQQLEEEEYYEKKELTLYQTHDIKIKSNAYKRFFEVKVDENLSAIEIILDECFIVLDTEEHYQEMFAYIKECLAFQGVVFRHFSQMYENLKTELRKYQKEAQNKRFILYTSSTFIPNIEEQSHFLLEEEYLPTHTIFLSDQEESFVKENYYIAKENQKVACVNCPKQGRDGRNLKGLYIELPKVAHSPTPIGHDKNAFEEREENNALVYYSKALQGVKMEKGRLVSKQNFIFKNGIKSIETPNLLGGLESGLALEIQARDELSDAIDSNLILEASVINIKGNVGKNVILVAKEITIEGQIHPESYVYANKARITNHKGVCYAKELECKYLERAKVYANSVKVEASAGSVVYAKEIALEKLKSDNKLYFSKQCWIDEVDGNGNRFIFYAFGGRENQEELKAAKQKLNALGLKSKKIIAQHQSLNHLVKNHQAIMEKLKNATEEIKRSLMQQESVKDAYSEFMFALKRLKILKAQMLELQKINNECYAKLISIENSFQHASITTKNPFKQENIVIYHRNYPKVSNSTAMLSHNESVNVIYEDHKIKKVPKSAIKG	failed
MGSTRKGMLNVLIAAVLWGSSGVCAQYIMEQSQMSSQFLTMTRLIFAGLILLTLSFVHGDKIFSIINNHKDAISLLIFSVVGALTVQLTFLLTIEKSNAATATVLQFLSPTIIVAWFSLVRKSRPGILVFCAILTSLVGTFLLVTHGNPTSLSISPAALFWGIASAFAAAFYTTYPSTLIARYGTLPVVGWSMLIGGLILLPFYARQGTNFVVNGSLILAFFYLVVIGTSLTFSLYLKGAQLIGGPKASILSCAEPLSSALLSLLLLGITFTLPDWLGTLLILSSVILISMDSRRRARKINRPARHK	failed
MICCLNPDCLNPLNPDGKKSCQSCGTTLVPLLRNRFRVVRVLSDEGGFGRTYLSEDKDKLNEPCVIKQLAPKFQGTWSQKKAVELFAEEAKRLQELGEHPQIPTLMAYFEQDNCLYLVQQFINGQNLLKELQQRKNYRPGEIQAILLDLLPVLKFIHDRGVIHRDIKPENIIRCRTDGRLNLIDFGSSKQLTAKVQNFGTSIGSHGYSPLEQIRDGKAYAASDLFALGATCFHLITSVSPFQLWMEHGYSWVSNWRQYLHSPLTPELDFVLDKLLQKDLKHRYTSADEVIKDITPKQPLALPAAGQTSGKIPVPQTTYLSKLPKKYSLLRSVVLLSALVLLFGFSESWFSQYLQIYSSLSARLTQNKSGQVVLAQPQKTTLRTISLANTLPDDENAFVSLAISPNGQIIASCGSDRTIKIWQLATGEDISSLKGHSRKVNAVVFSPDGKTLVSGGDDNTIKIWNLKTGKVIRTITGHSDAVHTLAISPNGKTLVSGSDDNTVKVWNLNTGRLINTLTGHTFWVRSVAISPDGVNIASGSFDKTVKIWNLETGTLTHTLAGNGETVTSIAFNPDGNTLASASRDRTIKIWKVGAGTRVRTLKGSTETITSIAFSPDGNTLASASRDQTIKLWNLETGKEIRTLEGHENTVTTVAFTPDGANLVSGSGDNTMRIWRIGN	failed
LLALWVSAGELMAASKGAAGFTKATQEVSSYQTPVSNLMKAIAAVIVLVGAFNVYFKMQNGDQDVKKTIMLTIGGCIAFIALSEALPLFF	failed
MAKLSRKERHRLLLQKIKENPFITDEELAEEFGCSVQTIRLDRAILDIKEVRERIKEMAKESLGKLKTISPRDVVGEIIDIELGSYAIATFEPELWMTFSNSQMVKGQHIYAFAESIAMSVIDAKAALIGIANIKYKTPVFANDRLVARAELKKKRNNKYIVWVFIKRNNEEVFRGKFILVAIDDENKETGQTGV	failed
MQNIVIRQCGHEDESWMNTLYKQNSKQALYQLGKSLDEGFVQDNAHFDQVMKQWIEIGAVYAAEIEGDPVGFLVIQRERAQHGPEIIQYISSHENILILQERALSDLHYAGYGPVLVSPHARGKGVAKALHDHALHILKAEKFDAMVAFVDAENPTSLKIHVDALDMQIIDKVVLASGQFFIIGQVIG	failed
AELQMLLEEEIPSGKRALIESYQNLTRVADYCENNYIQATDKRKALEETKAYTTQSLASVAYQINALANNVLQLLDIQASQLRRMESSINHISQTVDIHKEKVARREIGILTTNKNTSRTHKIIAPANMERPVRYIRKPIDYTVLDDVGHGVKWLKAKHGNNQPARTGTLSRTN	failed
MRLLVSCVDSGSIKEVLCNIGTDTSVQSALQPFHVAPHLAEGLKAYVDRMWVISEDEAILARNSGVVELVKISKHLKENEALQVDPKGESKNEKSLSDDLPKFDISEFEITSSVSDLFDDAKLESLSSKSVKRTKLVDGFVTLCPIKKDSSNNTFVAATKSGLLHIIKKGEDKKLIKLASLGLKAPVEFLQLYDLEDTDTDKYIFAYGGEENLIKLVEIDSSFQSLKQIWEAKNVKNDRLDMRVPVWPMALRFLEPSPGKTEKGKLNYQFAAITRWSHLTKYSTQHGRKPFAQIDLLPNREPLSQMEVFDAKGENVVSSLGNFQSETFNELNVITTDYKKNVFKFDGNGRMLGKVGRDDITGSSTYIHVHDGKYLLQGGLDRYVRIFDIKTNKMLVKVYVGSRINFIVMLDDVEIEMPLSPSAKAAKGKQKRKVTELEEDADELWNKLEGKVAASKASKKSKI	not failed
MNRLQGMELFVEVARTLSFGRAAENLAIPKSTLSRQVAELERSVGLRLLSRTTRRVELTEAGQLYFERCQRIVAEARIAHEELQNLVETPSGPLRVNMPADFGTDFLSEAFTEFSRRYPEVTFYLDLASPEHAERVFQTCDVSIEIGDLPDSTHIARLLGVLPAHLYASPDYLARHGEPQHPDDLPRHECIQFRAGTGRVTRWPLNSGERHVEITPGNRFSVNSVSMVRNLATLGAGIAILAPMGNVREDIESGRLKRILPDWLAGPFPVYAVTDTRMLPAKTRIFVEFLMERLSNKTLAGQNNPAFLNLR	failed
MQPRLVIAGTHSGVGKTTVTLGLMAAFVEKGNIVQGFKCGPDYIDPSYHRAVTKRASRNLDSWMVSEDVVNDIFIEGCNGADLSIIEGVMGFYDGKASTSDKGSTADISLLLQAPVLLVVDISGMARSAAAVVKGFQQLNEKVKIAGVILNGAGSERHAEMCSEAIKEACGIPALGYLKKGDVPSIPERHLGLVPALERGEHDSLFSQLAAVVSRQFDLERIERLALEASALSRRTNLFQQTKRPSVVKIAVAYDAAFHFYYEENFTLLRQAGAELVYFSPLRGEDLPSHCDGLYLGGGFPEEFADELSQWIKDHPQLKKRVQSGLPTLAECGGYMFLGEQLTTTKGKTVEMAGVIPMVVQMENKLVSLGYRDVTPLDDSFLLSKGQQIRGHEFHYSKAVYTETERPAYFVKGLFGEGKEGYMSDHLLAGYTHLHFASEPAVATQWVKACEVYKNRRLHRGQVSQLEHHHHHH	not failed
VALCVLRRSDGRVVLENTLSQQWLGNGSERDQLCSGWIEQAFDPARPNSSDYFETADGRHLYLSSAPTRYNGEDVLFCAFSDISARKQIEAALEEAKRLADTANEAKTLFLATMSHEIRTPLYGVLGTLELLSRTQ	failed
